We go through one molecule from patent US20220073613A1, “ACTIVATABLE MASKED ANTI-CTLA4 BINDING PROTEINS” (Xilio Development, Inc., priority 2018, published 2022).

The test system of test [1] is MC38 tumors. In words: MC38 mouse colorectal carcinoma model, tumor and Treg analysis (Example 4B). Format: in vivo, C57BL/6 mice. On the procedure:
The effects of activatable masked anti-CTLA4 antibodies on tumor growth as well as immune parameters in the tumor and in the periphery were investigated using a MC38 mouse colorectal carcinoma model, previously shown to respond to treatment with the 9D9 antibody. See Peggs K. S. et al., J Exp Med., 206:1717-1725, (2009) and Selby M. J., et al., Cancer Immunol Res., 1:32-42, (2013).
To assess anti-tumor efficacy, antibodies formulated in PBS were administered intraperitoneally (i.p.) on day 1 post-randomization at […] per dose in a volume of ≤250 μL. Tumor volumes were determined twice weekly. All mice were monitored individually and sacrificed upon either tumor volume reaching 1500 mm3 or 45 days post-randomization. To assess biological function of antibodies on regulatory T cells (Tregs) by FACS analysis as described below, tumor-bearing mice were administered antibody intraperitoneally on days 1, 4, and 8 post-randomization at […] per dose in a volume of ≤250 μL. The control antibody was muIgG2a (BioXcell). All mice were sacrificed on day 9; tumor and spleen were harvested for FACS analysis.
Mouse tumor samples were dissociated according to standard protocol by Tumor Dissociation Kit (gentleMACS) and passed through a 70 μm cell strainer. Spleen samples were dissociated with the back of a syringe in a 70 μm cell strainer. Red blood cells were lysed with ACK buffer (Lonza). Final cell suspensions were washed and resuspended in Staining Buffer (PBS pH 7.4, 2.5% FBS, 0.09% NaN3) at 2×10^7 cells/mL. Cells were treated with Mu Trustain fcX (BioLegend) to block Fc receptors prior to being stained with antibodies against CD45 (BioLegend), CD3 (BioLegend), CD4 (BioLegend), CD8 (BD Biosciences), CD25 (BioLegend), and Live/Dead Aqua (ThermoFisher). For intracellular staining, cells were fixed, permeabilized, and stained with antibodies against FoxP3 (eBioscience) and Ki-67 (eBioscience). Single color stains and FMOs were run for gating purposes.

For test [2], the system named is MC38 tumors. In words: MC38 tumor eradication and T cell population analysis (Example 4A). The class given is in vivo, C57Bl/6 mice. How it is done: C57Bl/6 mice with 50-100 mm^3 MC38 tumors were administered intraperitoneally a single dose of 200 μg of IgG2a control (BioXcel), parental anti-CTLA4 antibody reactive to murine CTLA4 (9D9.IgG2a, light chain comprising SEQ ID NO:237, heavy chain comprising SEQ ID NO:319), activatable masked anti-CTLA4 antibody reactive to murine CTLA4 (light chain comprising SEQ ID NO:238, heavy chain comprising SEQ ID NO:319), masked anti-CTLA4 antibody 1005 reactive to murine CTLA4 (light chain comprising SEQ ID NO:240, heavy chain comprising SEQ ID NO:319), or anti-CTLA4 antibody 1 cross-reactive with human CTLA4 and murine CTLA4 (light chain comprising SEQ ID NO:327, heavy chain comprising SEQ ID NO:366). Body weight and tumor size were measured biweekly.
C57Bl/6 mice with 50-100 mm^3 MC38 tumors were dosed with three […] doses on day 1, 4, and 8 with IgG2a control (BioXcel), parental anti-CTLA4 antibody (9D9.IgG2a, light chain comprising SEQ ID NO:237, heavy chain comprising SEQ ID NO:319 masked anti-CTLA4 antibody 2 (light chain comprising SEQ ID NO:238, heavy chain comprising SEQ ID NO:319), masked anti-CTLA4 antibody 1005 (light chain comprising SEQ ID NO:240, heavy chain comprising SEQ ID NO:319), or anti-CTLA4 antibody 1 cross-reactive with human CTLA4 and murine CTLA4 (light chain comprising SEQ ID NO:327, heavy chain comprising SEQ ID NO:366). On day 9, mice were sacrificed and tumors were dissociated using gentleMACS™ protocol “Tumor Dissociation Kit” (Milteni) and filtered through a 70 micron cell strainer and rinsed twice in PBS/2.5% FBS buffer to remove enzymatic buffer. […] and spleen cells were dissociated by gently grinding the tissue across a mesh. Red blood cells were lysed with ACK buffer (Thermo Fisher) prior to staining of the cells. Staining of cells was with fluorescently labeled anti-CD45 (BioLegend), anti-CD3 (BioLegend), anti-CD4 (BioLegend), anti-CD8 (BD Biosciences), anti-CD25 (BioLegend). Prior to staining with anti-FoxP3 (eBioscience), and anti-Ki67 (eBioscience) the cells were permeabilized. Stained cells were analyzed by fluorescent activate cell sorting (FACS) for the percentages of CD4+, CD8+, and CD25 Foxp3+(Tregs) cells of the live (Live/Dead Aqua purchased from Life) CD45 positive cells, as well as the percentage of these three cell populations that were Ki67 positive, a marker of cell proliferation.

Test [3] addresses murine CTLA4 (muCTLA4hsIgG protein). In words: Low density antigen binding ELISA, with MMP2 activation (Example 3B). On the procedure: All ELISA were performed in a manner substantially similar to the description below or generally consistent with methods known in the art. Polysterene 96-well microplates (Thermo Fisher Scientific) were coated with 3 ng muCTLA4hsIgG protein (Abcam) per well and stored overnight at 4° C. Plates were washed with 0.1% Tween in TBS (TBS-T), blocked with 1% BSA (Fisher) in PBS for 2 hours at 4° C., and washed with TBS-T. Serial dilutions of tested antibody in 0.05% Tween+1% BSA in PBS (PBS-TB) were added to the plate and incubated at room temperature for 1 hour. After washing with TBS-T, HRP-conjugated goat anti-mouse Kappa light chain antibody (Abcam) diluted 1:4000 in PBS-TB was applied to the wells and incubated at room temperature for 1 hour. Plates were washed with TBS-T, chemiluminescent HRP substrate was applied to plate, and luminescence was recorded using a spectrophotometer (Synergy HT, BioTek). Data was analyzed with GraphPad Prism, version 7.02.
Parental anti-CTLA4 antibodies, masked anti-CTLA4 antibodies, and non-cleavable masked anti-CTLA4 antibodies were each diluted to 1 μM solution in cleavage buffer (150 mM NaCl; 50 mM Tris, pH 7.5; 10 mM CaCl2; 0.02% NP-40). Recombinant MMP2 (R&D Systems) activated with 1 mM p-aminophenylmercuric acetate […] for 1 hour at 37° C. was added to each antibody solution to a final concentration of 4 nM and incubated overnight at 37° C. […]
On the technique in general: ELISA stands for enzyme-linked immunosorbent assay.

For test [4], the target named is T1, murine CTLA4-Fc (Mus musculus, UniProt P09793).
T1 construct: purchased R&D Systems
In words: ELISA binding to murine CTLA4-Fc, with MMP2 cleavage (Example 3A). The conditions noted are these: MMP2, 37° C. overnight. How it is done:
ELISA plates were coated overnight in TBS with murine CTLA4-Fc (R&D Systems) and then washed with TBS with 0.05% Tween 20, and blocked with 1% BSA in PBS followed by washing with TBS with Tween 20. Dilutions of parental anti-CTLA4 antibodies and masked anti-CTLA4 antibodies in PBS were allowed to bind to CTLA4 for 60 minutes before washing with TBS Tween 20. Binding was detected with anti-muKappa-HRP (Abcam) and Super Signal Pico Chemiluminescent Substrate. Masked ratio was determined from the EC50 precleavage masked anti-CTLA4 antibody to the EC50 for parental anti-CTLA4 antibody.
Parental anti-CTLA4 antibodies and masked anti-CTLA4 antibodies were incubated with 6 nM of MMP2 (R&D Systems) in 150 mM NaCl, 50 mM Tris, pH 7.5, 10 mM CaCl2, 0.02% NP-40) at 37° C. overnight. Antibody dilutions were tested for binding to murine CTLA4-Fc by the ELISA described above and by reduced-SDS-PAGE analysis, using “Any Kd Stain-Free pre-cast polyacrylamide gels” (Bio-Rad).

Setting [5] is: multi-dose, compared to parental antibody (9D9.IgG2a).

murine CTLA4 (muCTLA4hsIgG protein), sequence (P09793 36-161 limits assumed): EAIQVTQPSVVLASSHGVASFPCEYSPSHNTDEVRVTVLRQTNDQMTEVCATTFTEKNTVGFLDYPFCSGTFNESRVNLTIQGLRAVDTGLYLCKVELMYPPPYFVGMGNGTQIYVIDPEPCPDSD
T1 sequence (P09793 with tags, fused parts or gaps limits assumed): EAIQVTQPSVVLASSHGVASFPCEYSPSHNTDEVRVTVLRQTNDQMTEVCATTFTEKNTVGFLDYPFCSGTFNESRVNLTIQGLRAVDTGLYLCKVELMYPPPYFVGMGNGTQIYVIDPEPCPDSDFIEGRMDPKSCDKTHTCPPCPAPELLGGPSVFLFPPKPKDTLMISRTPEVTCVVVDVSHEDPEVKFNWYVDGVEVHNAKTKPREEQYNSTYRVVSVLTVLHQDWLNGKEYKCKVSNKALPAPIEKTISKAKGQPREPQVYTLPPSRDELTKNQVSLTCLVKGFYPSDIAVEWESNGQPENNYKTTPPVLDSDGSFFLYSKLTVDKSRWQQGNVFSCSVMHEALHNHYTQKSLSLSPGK

B1: activatable masked anti-CTLA4 antibody: 9D9 masked with CNLIVEGHC via MMP2/7/9 cleavable linker; light chain SEQ ID NO:238, heavy chain SEQ ID NO:319 (antibody)
heavy: EAKLQESGPVLVKPGASVKMSCKASGYTFTDYYMNWVKQSHGKSLEWIGVINPYNGDTSYNQKFKGKATLTVDKSSSTAYMELNSLTSEDSAVYYCARYYGSWFAYWGQGTLITVSSAKTTAPSVYPLAPVCGDTTGSSVTLGCLVKGYFPEPVTLTWNSGSLSSGVHTFPAVLQSDLYTLSSSVTVTSSTWPSQSITCNVAHPASSTKVDKKIEPRGPTIKPCPPCKCPAPNLLGGPSVFIFPPKIKDVLMISLSPIVTCVVVDVSEDDPDVQISWFVNNVEVHTAQTQTHREDYNSTLRVVSALPIQHQDWMSGKEFKCKVNNKDLPAPIERTISKPKGSVRAPQVYVLPPPEEEMTKKQVTLTCMVTDFMPEDIYVEWTNNGKTELNYKNTEPVLDSDGSYFMYSKLRVEKKNWVERNSYSCSVVHEGLHNHHTTKSFSRTPGK
light: ACNLIVEGHCGGSVPLSLYSGGGDIVMTQTTLSLPVSLGDQASISCRSSQSIVHSNGNTYLEWYLQKPGQSPKLLIYKVSNRFSGVPDRFSGSGSGTDFTLKISRVEAEDLGVYYCFQGSHVPYTFGGGTKLEIKRADAAPTVSIFPPSSEQLTSGGASVVCFLNNFYPKDINVKWKIDGSERQNGVLNSWTDQDSKDSTYSMSSTLTLTKDEYERHNSYTCEATHKTSTSPIVKSFNRNEC
One may read the EC50 as the concentration that produces a half-maximal response. Regarding B1, the “proliferating (Ki67+ FOXP3+) Tregs in the spleens” value in test [1] (doses on days 1, 4, and 8, 24 hours after last dose) is recorded as “marginal increases”. Further, in test [1] (doses on days 1, 4, and 8, 24 hours after last dose, flow cytometry), the “intratumoral Treg abundance” value is on record as “as effective in reducing Tregs as parental anti-CTLA4 antibody”. In addition, the “growth of subcutaneously implanted MC38 tumors” value in test [1] (i.p. on day 1 post-randomization) is given as “induced tumor regression”. In addition, in test [2] (setting [5]), the “proliferation of CD4+ cells in the periphery (spleen), % Ki67+” value is recorded as “reduced proliferation” and the “proliferation of CD8+ T cells in the periphery (spleen), % Ki67+” value is reported as “reduced proliferation”. Also, the tumor volume entry in test [2] (single dose of 200 μg intraperitoneally) was “equivalent efficacy in reducing tumor volume”. Further, the “regulatory T lymphocytes (Tregs) population in the tumor” value in test [2] (three doses on day 1, 4, and 8, day 9) was “preferentially depleted”. In addition, the EC50 in test [3] (treated with recombinant MMP2) was 0.29 ± 0.03 nM. Besides, the “fold lower binding to murine CTLA4 as compared to parental anti-CTLA4 antibody” value in test [3] (without protease, listed as Masked 9D9) was “approximately 156 fold”. Moreover, in test [4], the “binding to murine CTLA4 after protease activation” value is on record as “fully restored binding”.
